US20250269018A1, “COMBINED CANCER THERAPY WITH AN EPITHELIAL CELL ADHESION MOLECULE (EPCAM) INHIBITOR AND A HEPATOCYTE GROWTH FACTOR RECEPTOR (HGFR) INHIBITOR” (ACADEMIA SINICA, priority 2021, published 2025)
“Also recorded” adds a separate entry of the source. Each block holds one molecule with its values, some of them ahead of it.

How the values were obtained:
[1] = molecular target: T1, HGFRECD-c-Myc (extracellular domain of HGFR with c-Myc tag, expressed in HEK293T cells) (UniProt P08581 25-932); assay: co-IP from transfected HEK293T cells (FIG. 1F)
T1 construct: extracellular domain; also called HGFRECD-c-Myc-tag; not shown: c-Myc tag

[2] = molecular target: T1, HGFRECD-c-Myc (extracellular domain of …); assay: co-IP with anti-c-Myc from transfected HEK293T cells (FIG. 1G)
HGFR signaling = assay: Western blotting of phosphorylated HGFR, AKT, ERK, FAK in HCT116 cells; format: cell-based, human; conditions: HCT116; 10 μg/ml 16 h, then EpEX-His 50 nM 15 min; FIG. 7D
Protocol: FIGS. 2A to 2K. EpEX promotes tumor progression via HGFR signaling. (FIG. 2A) WT or EpCAM knockout (KO) HCT116 and HT29 cells treated with HGF (0.5 nM) for 15 min. The phosphorylation of HGFR, AKT, and ERK was examined by Western blotting. (FIG. 2B) WT or KO HCT116 and HT29 cells were treated with HGF (0.5 nM) with 2% FBS for the indicated times. Cell growth was examined by the WST-1 assay. (FIG. 2C) Starved HCT116 cells were treated with HGFR inhibitor SU11274 (SU, 10 μM) for 1 h then treated with 50 nM of EpEX-His for 15 min. The levels of phosphorylated HGFR, EGFR, AKT, and ERK were examined by Western blotting. HCT116 and HT29 cells were treated with 50 nM EpEX and SU (10 μM). (FIG. 2D) Cell growth was examined by WST-1 assay after treatment for indicated time. (FIG. 2E) HCT116 cells were treated with shLuc or HGFR shRNA then treated with 50 nM of EpEX-His for 15 min. The levels of phosphorylated HGFR, EGFR, ERK, and AKT were examined in HGFR knockdown HCT116 cells by Western blotting. (FIG. 2F) The levels of phosphorylated ADAM17 and presenilin 2 were examined by Western blotting. (FIG. 2G) Active β-catenin nuclear translocation was assay by using Western blotting. (H) HCT116 cells were treated with shLuc or HGFR shRNA then treated with 50 nM of EpEX-His for indicated times. Cell growth was examined by the WST-1 assay. (FIG. 2I) HCT116 cells after shLuc and shHGFR treatment were treated with 50 nM of EpEX-His with 2% FBS for 7 days. Colony formation was examined by crystal violet staining.
FIGS. 6A to 6J. EpAb2-6 inhibits EpCAM and HGFR signaling and promotes active β-catenin and Snail protein degradation via activating GSK3β. (FIG. 6A) HCT116 cells were treated with 10 μg/ml control IgG (normal mouse IgG, NMIgG) or mouse EpAb2-6 (EpAb2-6) for 16 h, followed by treatment with EpEX-His (50 nM) for 15 min. Levels of phosphorylated HGFR, AKT, FAK, GSK3β, ERK, ADAM17, and presenilin 2 were examined by Western blotting. (FIG. 6B) HCT116 cells were treated with 10 μg/ml control IgG or mouse EpAb2-6 for 16 h, followed by treatment without or with HGF (0.5 nM) for 15 min. Levels of phosphorylated HGFR, AKT, and ERK were examined by Western blotting. HCT116 cells were treated with mouse EpAb2-6 (10 μg/ml) and HGF (0.5 nM). (FIG. 6C) Cell migration was examined by the wound healing assay at the indicated times. (FIG. 6D) Cell invasion was assessed by a Transwell assay with matrigel after 24 h. (FIG. 6E) HCT116 cells were treated with NMIgG or EpAb2-6 for 6 h and then immunoprecipitated with anti-EpCAM (IP: EpCAM) or anti-HGFR (IP: HGFR) antibodies, followed by Western blotting. (FIG. 6F) EpEX-His (2 μg/ml) co-treated with 1 μg IgG or EpAb2-6 was added to HGFR-Fc-coated (1 μg/ml) ELISA plates and detected by TMB colorimetric peroxidase assay. (FIG. 6G) EMT associated protein levels were detected by Western blotting in HCT116 cells treated with NMIgG or EpAb2-6 for 24 h. (FIG. 6H) Protein expression was analyzed by Western blotting in HCT116 cells after treatment with EpAb2-6 and 2 μM GSK3β inhibitor (BIO) for 24 h. Quantification of the normalized protein expression in the bottom panel. (FIG. 6I) HCT116 cells were treated with 10 μM MG132 and EpAb2-6 for 6 h before cell collection and subsequent Western blotting. (FIG. 6J) Stability of Snail protein in HCT116 cells treated with NMIgG or EpAb2-6. Cells were treated with cyclohexamide (CHX) 100 μg/ml at the indicated intervals and subjected to Western blotting.
FIGS. 7A to 7G. EpAb2-6 binds EpEX and induces apoptosis by F(ab′)2 and inhibits regulated intramembrane proteolysis (RIP) activation and HGFR signaling. (FIG. 7A) Binding affinity of IgG EpAb2-6 (mouse) and F(ab′)2 to EpEX-His (1 μg/ml) coated overnight was checked using ELISA (OD450). (FIG. 7B) HCT116 cells were treated with 100 μg/ml control IgG, Fc, or F(ab′)2 of EpAb2-6 for 24 h. The apoptotic and necrotic cells were quantified by fluorescein annexin V-FITC/PI double labeling. […]

HCT116 cells = assay: Apoptosis assay, annexin V-FITC/PI double labeling, HCT116; format: cell-based, human; conditions: 10 μg/ml 24 h, FIG. 7C
Protocol: (§1) FIGS. 7A to 7G. EpAb2-6 binds EpEX and induces apoptosis by F(ab′)2 and inhibits regulated intramembrane proteolysis (RIP) activation and HGFR signaling. (FIG. 7A) Binding affinity of IgG EpAb2-6 (mouse) and F(ab′)2 to EpEX-His (1 μg/ml) coated overnight was checked using ELISA (OD450). (FIG. 7B) HCT116 cells were treated with 100 μg/ml control IgG, Fc, or F(ab′)2 of EpAb2-6 for 24 h. The apoptotic and necrotic cells were quantified by fluorescein annexin V-FITC/PI double labeling. (FIG. 7C) HCT116 and HT29 cells were treated with 10 μg/ml control IgG, MT201, humanized EpAb2-6 (hEpAb2-6) or mouse hybridoma EbAb2-6 (mEpAb2-6) for 24 h. The apoptotic and necrotic cells were quantified by fluorescein annexin V-FITC/PI double labeling. (FIG. 7D) HCT116 cells were treated with 10 μg/ml control IgG, MT201, hEpAb2-6 or mEpAb2-6 for 16 h, followed by treatment with EpEX-His (50 nM) for 15 min. Levels of phosphorylated HGFR, AKT, and ERK, and (FIG. 7E) RIP proteins ADAM17 and presenilin 2 were examined by Western blotting. Anti-EpCAM antibody and crizotinib coordinately induces apoptosis in colon cancer cells. (FIG. 7F) HCT116 and HT29 cells were treated with 10 μg/ml NMIgG or EpAb2-6 and 4 μM HGFR inhibitor crizotinib for 24 h. The apoptotic and necrotic cells were quantified by fluorescein annexin V-FITC/PI double labeling. (FIG. 7G) HCT116 and HT29 cells were treated with 10 μg/ml NMIgG or EpAb2-6 and 10 μM HGFR inhibitor crizotinib. Cell invasion was assessed by a Transwell assay with matrigel after 24 h.
(§2) Cells were seeded and treated with 10 μg/ml mAb or inhibitor for 6 h; an unrelated mouse myeloma immunoglobulin used at appropriate dilution served as the IgG2a (Invitrogen #02-6200) isotype control. Apoptotic cells were detected using Annexin V-FITC and PI, and were analyzed using a flow cytometer (BD Immmunocytometry Systems). Early apoptosis was measured with the Annexin V-FITC Apoptosis Detection kit II (BD Pharmingen). Late apoptotic nuclei were detected with propidium iodide (PI) staining.

HT29 cells = assay: Apoptosis assay, annexin V-FITC/PI double labeling, HT29; format: cell-based, human; conditions: 10 μg/ml 24 h, FIG. 7C
Protocol: as §1, §2

ADAM17 and presenilin 2 = assay: Western blotting of RIP proteins ADAM17 and presenilin 2 in HCT116 cells; format: cell-based, human; conditions: 10 μg/ml 16 h, then EpEX-His 50 nM 15 min, FIG. 7E
Protocol: as §1, with “(FIG. 7G) HCT116 and HT29 cells were treated with 10 μg/ml NMIgG or EpAb2-6 and 10 μM HGFR inhibitor crizotinib.” left out
Whole cell extracts were prepared with RIPA buffer (50 mM Tris-HCl pH7.4, 1% NP-40, 0.5% Sodium deoxycholate, 0.1% SDS, 150 mM NaCl, 2 mM EDTA, 50 mM NaF). Protein concentrations of the cell lysates were determined by the Bradford assay. […]
Appropriate horseradish peroxidase-associated secondary antibodies (Millipore) were applied and the membranes were incubated at room temperature (RT) for 1 h. The protein bands were subsequently visualized with chemiluminescence reagents (Millipore) and detected on a BioSpectrum 600 Imaging system (UVP). The protein level was quantified from band intensity using Gel-Pro analyzer 3.1 (Media Cybernetics).

EpCAM = molecular target: T2, EpCAM (Homo sapiens, UniProt P16422); conditions: other anti-EpCAM antibodies, comparison in the description; cited from earlier work
T2 sequence (P16422 24-314): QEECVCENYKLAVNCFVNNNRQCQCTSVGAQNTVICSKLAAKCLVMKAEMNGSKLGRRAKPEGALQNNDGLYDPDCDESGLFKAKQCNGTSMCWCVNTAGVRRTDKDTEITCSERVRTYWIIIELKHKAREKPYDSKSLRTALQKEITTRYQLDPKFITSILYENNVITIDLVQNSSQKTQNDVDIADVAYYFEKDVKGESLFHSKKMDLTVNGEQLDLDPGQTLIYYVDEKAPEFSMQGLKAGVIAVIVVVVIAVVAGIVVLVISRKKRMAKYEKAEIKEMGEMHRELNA

cancer cells = conditions: comparison in the description; previous work; cited from earlier work

T1 sequence (P08581 25-932): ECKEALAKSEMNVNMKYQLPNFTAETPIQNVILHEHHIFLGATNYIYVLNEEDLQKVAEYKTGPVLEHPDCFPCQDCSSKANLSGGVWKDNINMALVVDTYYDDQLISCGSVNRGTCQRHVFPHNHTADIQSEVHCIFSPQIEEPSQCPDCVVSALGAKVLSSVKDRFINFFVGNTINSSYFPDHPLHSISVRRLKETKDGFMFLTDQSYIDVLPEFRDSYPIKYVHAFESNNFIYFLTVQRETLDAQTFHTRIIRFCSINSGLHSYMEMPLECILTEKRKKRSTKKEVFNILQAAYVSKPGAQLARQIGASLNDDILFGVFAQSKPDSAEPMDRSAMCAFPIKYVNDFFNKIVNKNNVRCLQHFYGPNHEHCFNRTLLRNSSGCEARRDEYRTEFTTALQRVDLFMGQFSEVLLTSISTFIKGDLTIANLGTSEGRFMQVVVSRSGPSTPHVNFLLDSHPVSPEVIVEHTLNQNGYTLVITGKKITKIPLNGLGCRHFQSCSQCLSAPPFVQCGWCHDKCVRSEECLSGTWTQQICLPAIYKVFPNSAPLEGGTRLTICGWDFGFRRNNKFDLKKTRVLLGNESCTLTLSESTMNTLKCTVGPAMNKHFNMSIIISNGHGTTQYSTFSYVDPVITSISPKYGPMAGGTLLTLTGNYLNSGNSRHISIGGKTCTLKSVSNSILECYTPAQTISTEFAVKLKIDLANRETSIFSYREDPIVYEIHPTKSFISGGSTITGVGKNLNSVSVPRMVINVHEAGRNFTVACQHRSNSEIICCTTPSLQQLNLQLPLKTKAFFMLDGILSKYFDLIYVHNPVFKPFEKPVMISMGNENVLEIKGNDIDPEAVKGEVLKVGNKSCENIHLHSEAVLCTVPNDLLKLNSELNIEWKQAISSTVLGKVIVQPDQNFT

B1: EpCAMΔEGFI-V5 (other)
chain: QEESKLAAKCLVMKAEMNGSKLGRRAKPEGALQNNDGLYDPDCDESGLFKAKQCNGTSMCWCVNTAGVRRTDKDTEITCSERVRTYWIIIELKHKAREKPYDSKSLRTALQKEITTRYQLDPKFITSILYENNVITIDLVQNSSQKTQNDVDIADVAYYFEKDVKGESLFHSKKMDLTVNGEQLDLDPGQTLIYYVDEKAPEFSMQGLKAGVIAVIVVVVIAVVAGIVVLVISRKKRMAKYEKAEIKEMGEMHRELNA
notes: also called EGF like-domain deletion mutant EpCAM-V5; not shown: V5 tag
binding result [1]: binds

B4: hEpAb2-6: humanized EpAb2-6 (antibody, V domains shown)
VH: VKLQESGPELKKPGETVKISCKASGYTFTDYSMHWVKQAPGKGLKWMGWINTETGEPTYADDFKGRFAFSLETSASTAYLQINNLKNEDTATYFCARTAVYWGQGTTVTVSS
VL: DIQMTQSPSSLSASLGERVSLTCRASQEISVSLSWLQQEPDGTIKRLIYATSTLDSGVPKRFSGSRSGSDYSLTISSLESEDFVDYYCLQYASYPWTFGGGTKLEIKRADAAPTVS
phosphorylation of HGFR, AKT, and ERK (HGFR signaling): inhibited phosphorylation of HGFR, AKT, and ERK
apoptosis (HCT116 cells): inducing apoptosis
apoptosis (HT29 cells): inducing apoptosis
levels of phosphorylated ADAM17 and presenilin 2 (ADAM17 and presenilin 2): decreased

B6: edrecolomab: other antibody targeting only the EGF I domain of EpCAM (antibody, chains of the INN, looked up, V domains shown)
VH: QVQLQQSGAELVRPGTSVKVSCKASGYAFTNYLIEWVKQRPGQGLEWIGVINPGSGGTNYNEKFKGKATLTADKSSSTAYMQLSSLTSDDSAVYFCARDGPWFAYWGQGTLVTVSA
VL: NIVMTQSPKSMSMSVGERVTLTCKASENVVTYVSWYQQKPEQSPKLLIYGASNRYTGVPDRFTGSGSATDFTLTISSVQAEDLADYHCGQGYSYPYTFGGGTKLEIK
EpCAM domains bound (EpCAM): target only the well-described EGF I domain of EpCAM; also recorded: binding to domain I only
inducing apoptosis of cancer cells (cancer cells): failing to

Results, then the molecule that gave them:

binding result [2]: binds
B2: EpEXΔEGFI-His (ligand)
chain: QEESKLAAKCLVMKAEMNGSKLGRRAKPEGALQNNDGLYDPDCDESGLFKAKQCNGTSMCWCVNTAGVRRTDKDTEITCSERVRTYWIIIELKHKAREKPYDSKSLRTALQKEITTRYQLDPKFITSILYENNVITIDLVQNSSQKTQNDVDIADVAYYFEKDVKGESLFHSKKMDLTVNGEQLDLDPGQTLIYYVDEKAPEFSMQGLK
notes: EpEX lacking aa 27-59; also called EGF like-domain deletion mutant EpEX-His; soluble EpEX mutant protein; not shown: His tag

binding result [2]: binds
B3: EpEXΔEGFII-His (ligand)
chain: QEECVCENYKLAVNCFVNNNRQCQCTSVGAQNTVICSKLAAKSERVRTYWIIIELKHKAREKPYDSKSLRTALQKEITTRYQLDPKFITSILYENNVITIDLVQNSSQKTQNDVDIADVAYYFEKDVKGESLFHSKKMDLTVNGEQLDLDPGQTLIYYVDEKAPEFSMQGLK
notes: EpEX lacking aa 66-135; also called EGF like-domain deletion mutant EpEX-His; soluble EpEX mutant protein; not shown: His tag

binding result [1]: binds
B5: EpCAMΔEGFII-V5 (other)
chain: QEECVCENYKLAVNCFVNNNRQCQCTSVGAQNTVICSKLAAKSERVRTYWIIIELKHKAREKPYDSKSLRTALQKEITTRYQLDPKFITSILYENNVITIDLVQNSSQKTQNDVDIADVAYYFEKDVKGESLFHSKKMDLTVNGEQLDLDPGQTLIYYVDEKAPEFSMQGLKAGVIAVIVVVVIAVVAGIVVLVISRKKRMAKYEKAEIKEMGEMHRELNA
notes: as for B1
